How the values were obtained:
[1] = target: T1, human IGF-1R(1-903)-Fc (human, UniProt P08069 31-933); test: blocking ELISA, competitor 320 nM IGF-1
T1 construct: Made by Biogen Idec; also called hIGF-1R-Fc; IGF-1R-Fc

[2] = target: T1, human IGF-1R(1-903)-Fc; test: blocking ELISA, competitor 640 nM IGF-2
[3] = target: T2, hIGF-1R-Fc mutant SD203 (human, UniProt P08069 31-933); test: KD grade of mutant hIGF-1R-Fc; S = binding to antibody was ablated by mutation
T2 construct: build as m36 with the substitution; also called N254A

[4] = target: T3, hIGF-1R-Fc mutant SD207 (human, UniProt P08069 31-933); test: as above
T3 construct: build as m36 with the substitution; also called G265Y
T3 sequence (P08069 other isoform, or with tags, fused parts or gaps mutant limits assumed): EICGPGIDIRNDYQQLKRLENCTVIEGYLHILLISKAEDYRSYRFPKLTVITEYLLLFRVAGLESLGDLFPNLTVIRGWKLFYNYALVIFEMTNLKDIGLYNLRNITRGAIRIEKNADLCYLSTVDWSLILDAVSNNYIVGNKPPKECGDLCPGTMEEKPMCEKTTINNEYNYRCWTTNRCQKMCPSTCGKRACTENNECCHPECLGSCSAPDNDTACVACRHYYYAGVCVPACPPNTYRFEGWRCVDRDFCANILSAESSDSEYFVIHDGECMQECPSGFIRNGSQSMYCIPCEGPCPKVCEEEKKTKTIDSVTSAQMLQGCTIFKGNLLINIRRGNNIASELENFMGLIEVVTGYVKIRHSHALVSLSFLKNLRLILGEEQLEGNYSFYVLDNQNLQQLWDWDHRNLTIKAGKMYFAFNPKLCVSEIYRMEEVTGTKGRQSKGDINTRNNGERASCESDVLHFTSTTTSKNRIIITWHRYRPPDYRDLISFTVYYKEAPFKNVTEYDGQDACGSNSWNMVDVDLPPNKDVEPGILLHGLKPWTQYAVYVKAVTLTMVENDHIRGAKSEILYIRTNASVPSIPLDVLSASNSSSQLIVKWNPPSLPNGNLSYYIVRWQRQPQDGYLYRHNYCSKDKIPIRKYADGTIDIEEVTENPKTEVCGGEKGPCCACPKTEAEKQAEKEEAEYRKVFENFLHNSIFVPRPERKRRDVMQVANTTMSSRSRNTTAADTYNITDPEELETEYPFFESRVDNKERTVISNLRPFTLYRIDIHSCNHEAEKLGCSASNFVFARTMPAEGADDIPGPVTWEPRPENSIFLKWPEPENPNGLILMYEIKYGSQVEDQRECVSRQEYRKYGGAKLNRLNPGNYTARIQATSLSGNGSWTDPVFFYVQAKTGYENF

T1 sequence (P08069 31-933): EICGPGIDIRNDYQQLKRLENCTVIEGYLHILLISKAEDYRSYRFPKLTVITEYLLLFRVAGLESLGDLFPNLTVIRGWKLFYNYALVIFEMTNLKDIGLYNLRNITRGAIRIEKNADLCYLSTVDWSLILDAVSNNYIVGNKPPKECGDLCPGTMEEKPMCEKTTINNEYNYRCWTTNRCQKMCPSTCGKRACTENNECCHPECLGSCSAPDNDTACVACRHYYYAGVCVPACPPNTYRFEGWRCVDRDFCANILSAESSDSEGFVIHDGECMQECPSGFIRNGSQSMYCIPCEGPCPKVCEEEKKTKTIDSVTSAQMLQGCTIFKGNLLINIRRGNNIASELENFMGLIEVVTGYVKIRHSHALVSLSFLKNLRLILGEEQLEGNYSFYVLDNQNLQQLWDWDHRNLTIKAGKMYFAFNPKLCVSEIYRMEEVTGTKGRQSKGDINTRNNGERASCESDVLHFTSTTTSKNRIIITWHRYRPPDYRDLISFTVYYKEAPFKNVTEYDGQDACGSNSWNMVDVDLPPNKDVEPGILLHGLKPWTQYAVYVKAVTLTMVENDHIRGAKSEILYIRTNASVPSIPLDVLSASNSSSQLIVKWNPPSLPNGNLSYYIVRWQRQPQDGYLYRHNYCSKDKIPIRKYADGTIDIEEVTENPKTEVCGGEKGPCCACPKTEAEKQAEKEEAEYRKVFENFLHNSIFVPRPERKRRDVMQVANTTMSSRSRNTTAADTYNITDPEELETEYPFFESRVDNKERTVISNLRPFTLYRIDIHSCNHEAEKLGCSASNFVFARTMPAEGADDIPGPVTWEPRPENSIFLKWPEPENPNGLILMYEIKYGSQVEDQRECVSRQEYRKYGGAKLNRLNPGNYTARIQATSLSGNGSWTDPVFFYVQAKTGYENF
T2 sequence (P08069 other isoform, or with tags, fused parts or gaps mutant limits assumed): as the sequence (P08069 31-933) above, with N254A counted along it

- % IGF-1 inhibition upon antibody saturation [1]: 38%
- % IGF-2 inhibition upon antibody saturation [2]: ~50%
- binding result [3]: no binding
- binding result [4]: no binding
B1: P1E2 (chimeric antibody) (antibody, V domains shown)
VH: QVQLQQPGAELVKPGASVKLSCKASGYTFTSYWMHWVKQRPGQGLEWIGEINPTYGRSNYNEKFKSKATLTVDKSSSTAYMQLSSLTSEDSAVYYCARLVRLRYFDVWGAGTTVTVSS
VL: DIVMTQAAFSNPVTLGTSASISCRSSKSLLHSNGITYLYWYLQKPGQSPQLLIYQMSNLASGVPDRFSSSGSGTDFTLRISRVEAEDVGVYYCAQNLELPYTFGGGTKLEIK

— patent US20090092614A1 (Biogen, published 2009)
